Numbering of substitutions follows the chain as printed. Blank lines part the entries; values can stand above or below the binder they belong to.
Molecular target: T1, Human PD-L1 full-length (human, UniProt Q9NZQ7 19-290)
T1 construct: also called PDL01021; CHOK1SV/huPDL1
Experiment: flow cytometry, CHOK1SV/human PD-L1 cells

T1 sequence (Q9NZQ7 19-290): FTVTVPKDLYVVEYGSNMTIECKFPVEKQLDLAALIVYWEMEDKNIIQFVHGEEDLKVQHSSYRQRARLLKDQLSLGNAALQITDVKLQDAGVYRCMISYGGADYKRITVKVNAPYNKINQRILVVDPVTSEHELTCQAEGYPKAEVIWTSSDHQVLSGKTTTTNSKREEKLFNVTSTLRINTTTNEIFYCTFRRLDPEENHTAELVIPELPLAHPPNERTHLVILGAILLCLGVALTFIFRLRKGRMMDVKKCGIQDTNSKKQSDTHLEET

B1: CD4001064 (PDL_5F9 x hFc x CD40_2H7) (bispecific antibody)
chain: EVQLVESGGGLVKPGGSLRLSCAASGFTFSDYGMAWVRQAPGKGLEWVAFITSLAYIIYYADSVKGRFTISRDNAKNSLYLQMNSLRAEDTAVYYCARNYGSSPYYFDYWGQGTLVTVSSGGGGSGGGGSGGGGSGGGGSDIQMTQSPSSLSASVGDRVTITCRASQDINKFLSWYQQKPGKAPKLLIHYTSSLQPGVPSRFSGSGSGTDFTLTISSLQPEDFATYYCLQYDNLYTFGQGTKLEIKEPKSSDKTHTCPPCPAPPAAAPSVFLFPPKPKDTLMISRTPEVTCVVVDVSHEDPEVKFNWYVDGVEVHNAKTKPREEQYNSTYRVVSVLTVLHQDWLNGKEYKCAVSNKALPAPIEKTISKAKGQPREPQVYTLPPSRDELTKNQVSLTCLVKGFYPSDIAVEWESNGQPENNYKTTPPVLDSDGSFFLYSKLTVDKSRWQQGNVFSCSVMHEALHNHYTQKSLSLSPGGGGSPSDIVMTQSHKFMSTSVGDRVSITCKASQDVNTAVAWYQQKPGQSPKLLIYSASYRYTGVPDRFTGSGSGTDFTFTISSVQAEDLAVYYCQQHYSTPWTFGGGTKLEIKGGGGSGGGGSGGGGSGGGGSQVQLQQSGAELAKPGASVKMSCKASGYAFTTYWMHWVKQRPGQGLEWIGYINPTTGYTDYNQKFKDKATLTADKSSSTAYMQLSSLTSEDSAVYYCARWGLPPFAYWGQGTLVTVSA
notes: ADAPTIR format, anti-PD-L1 scFv on N-terminus, anti-CD40 scFv on C-terminus; also called CD4001064 (2H7)
binding result: binds

B2: CD4001066 (PDL_5F9 x hFc x CD40_1D5) (bispecific antibody)
chain: EVQLVESGGGLVKPGGSLRLSCAASGFTFSDYGMAWVRQAPGKGLEWVAFITSLAYIIYYADSVKGRFTISRDNAKNSLYLQMNSLRAEDTAVYYCARNYGSSPYYFDYWGQGTLVTVSSGGGGSGGGGSGGGGSGGGGSDIQMTQSPSSLSASVGDRVTITCRASQDINKFLSWYQQKPGKAPKLLIHYTSSLQPGVPSRFSGSGSGTDFTLTISSLQPEDFATYYCLQYDNLYTFGQGTKLEIKEPKSSDKTHTCPPCPAPPAAAPSVFLFPPKPKDTLMISRTPEVTCVVVDVSHEDPEVKFNWYVDGVEVHNAKTKPREEQYNSTYRVVSVLTVLHQDWLNGKEYKCAVSNKALPAPIEKTISKAKGQPREPQVYTLPPSRDELTKNQVSLTCLVKGFYPSDIAVEWESNGQPENNYKTTPPVLDSDGSFFLYSKLTVDKSRWQQGNVFSCSVMHEALHNHYTQKSLSLSPGGGGSPSDIVMSQSPSSLAVSVGEKVTMSCKSSQSLLFSVNQKNYLAWYQQKPGQSPKLLIYWASTRESGVPDRFTGSGSGTDFTLTIGSVKAEDLAVYYCQHYYSYPWTFGGGTKLEIKGGGGSGGGGSGGGGSGGGGSQVQLQQSGAELMNPGASVRISCKATGYTFSTSWIEWIKQRPGHGLEWIGEILPGSGSTNYNEKFKGKATFTADTSSNTAYMQLSSLTFEDSAVYYCARGDDGSYVRWYFDVWGAGTTVTVSS
notes: ADAPTIR format, anti-PD-L1 scFv on N-terminus, anti-CD40 scFv on C-terminus; also called CD4001066 (1D5)
binding result: binds

B3: CD4001069 (bispecific antibody)
PDL_5F9 x Fc-Knob: EVQLVESGGGLVKPGGSLRLSCAASGFTFSDYGMAWVRQAPGKGLEWVAFITSLAYIIYYADSVKGRFTISRDNAKNSLYLQMNSLRAEDTAVYYCARNYGSSPYYFDYWGQGTLVTVSSGGGGSGGGGSGGGGSGGGGSDIQMTQSPSSLSASVGDRVTITCRASQDINKFLSWYQQKPGKAPKLLIHYTSSLQPGVPSRFSGSGSGTDFTLTISSLQPEDFATYYCLQYDNLYTFGQGTKLEIKEPKSSDKTHTCPPCPAPPAAAPSVFLFPPKPKDTLMISRTPEVTCVVVDVSHEDPEVKFNWYVDGVEVHNAKTKPREEQYNSTYRVVSVLTVLHQDWLNGKEYKCAVSNKALPAPIEKTISKAKGQPREPQVYTLPPSRDELTKNQVSLWCLVKGFYPSDIAVEWESNGQPENNYKTTPPVLDSDGSFFLYSKLTVDKSRWQQGNVFSCSVMHEALHNHYTQKSLSLSPG
CD40_1D5 x Fc-Hole: DIVMSQSPSSLAVSVGEKVTMSCKSSQSLLFSVNQKNYLAWYQQKPGQSPKLLIYWASTRESGVPDRFTGSGSGTDFTLTIGSVKAEDLAVYYCQHYYSYPWTFGGGTKLEIKGGGGSGGGGSGGGGSGGGGSQVQLQQSGAELMNPGASVRISCKATGYTFSTSWIEWIKQRPGHGLEWIGEILPGSGSTNYNEKFKGKATFTADTSSNTAYMQLSSLTFEDSAVYYCARGDDGSYVRWYFDVWGAGTTVTVSSEPKSSDKTHTCPPCPAPPAAAPSVFLFPPKPKDTLMISRTPEVTCVVVDVSHEDPEVKFNWYVDGVEVHNAKTKPREEQYNSTYRVVSVLTVLHQDWLNGKEYKCAVSNKALPAPIEKTISKAKGQPREPQVYTLPPSRDELTKNQVSLSCAVKGFYPSDIAVEWESNGQPENNYKTTPPVLDSDGSFFLVSKLTVDKSRWQQGNVFSCSVMHEALHNRFTQKSLSLSPG
binding result: binds

B4: CD4001073 (bispecific antibody)
CD40_2H7 x Fc-Knob: DIVMTQSHKFMSTSVGDRVSITCKASQDVNTAVAWYQQKPGQSPKLLIYSASYRYTGVPDRFTGSGSGTDFTFTISSVQAEDLAVYYCQQHYSTPWTFGGGTKLEIKGGGGSGGGGSGGGGSGGGGSQVQLQQSGAELAKPGASVKMSCKASGYAFTTYWMHWVKQRPGQGLEWIGYINPTTGYTDYNQKFKDKATLTADKSSSTAYMQLSSLTSEDSAVYYCARWGLPPFAYWGQGTLVTVSAEPKSSDKTHTCPPCPAPPAAAPSVFLFPPKPKDTLMISRTPEVTCVVVDVSHEDPEVKFNWYVDGVEVHNAKTKPREEQYNSTYRVVSVLTVLHQDWLNGKEYKCAVSNKALPAPIEKTISKAKGQPREPQVYTLPPSRDELTKNQVSLWCLVKGFYPSDIAVEWESNGQPENNYKTTPPVLDSDGSFFLYSKLTVDKSRWQQGNVFSCSVMHEALHNHYTQKSLSLSPG
CD40_2H7 x Fc-Hole x PDL_5F9: DIVMTQSHKFMSTSVGDRVSITCKASQDVNTAVAWYQQKPGQSPKLLIYSASYRYTGVPDRFTGSGSGTDFTFTISSVQAEDLAVYYCQQHYSTPWTFGGGTKLEIKGGGGSGGGGSGGGGSGGGGSQVQLQQSGAELAKPGASVKMSCKASGYAFTTYWMHWVKQRPGQGLEWIGYINPTTGYTDYNQKFKDKATLTADKSSSTAYMQLSSLTSEDSAVYYCARWGLPPFAYWGQGTLVTVSAEPKSSDKTHTCPPCPAPPAAAPSVFLFPPKPKDTLMISRTPEVTCVVVDVSHEDPEVKFNWYVDGVEVHNAKTKPREEQYNSTYRVVSVLTVLHQDWLNGKEYKCAVSNKALPAPIEKTISKAKGQPREPQVYTLPPSRDELTKNQVSLSCAVKGFYPSDIAVEWESNGQPENNYKTTPPVLDSDGSFFLVSKLTVDKSRWQQGNVFSCSVMHEALHNRFTQKSLSLSPGGGGSPSEVQLVESGGGLVKPGGSLRLSCAASGFTFSDYGMAWVRQAPGKGLEWVAFITSLAYIIYYADSVKGRFTISRDNAKNSLYLQMNSLRAEDTAVYYCARNYGSSPYYFDYWGQGTLVTVSSGGGGSGGGGSGGGGSGGGGSDIQMTQSPSSLSASVGDRVTITCRASQDINKFLSWYQQKPGKAPKLLIHYTSSLQPGVPSRFSGSGSGTDFTLTISSLQPEDFATYYCLQYDNLYTFGQGTKLEIK
binding result: binds

The remaining lines, values ahead:

binding result: binds
B5: CD4001067 (bispecific antibody)
PDL_5F9 x Fc-Knob: B3 PDL_5F9 x Fc-Knob
CD40_2H7 x Fc-Hole: B4 CD40_2H7 x Fc-Knob with W394S, L396A, Y435V, H463R, Y464F

binding result: binds
B6: CD4001049 (bispecific antibody)
scFv-Fc-scFv chain: DIVMSQSPSSLAVSVGEKVTMSCKSSQSLLFSVNQKNYLAWYQQKPGQSPKLLIYWASTRESGVPDRFTGSGSGTDFTLTIGSVKAEDLAVYYCQHYYSYPWTFGGGTKLEIKGGGGSGGGGSGGGGSGGGGSQVQLQQSGAELMNPGASVRISCKATGYTFSTSWIEWIKQRPGHGLEWIGEILPGSGSTNYNEKFKGKATFTADTSSNTAYMQLSSLTFEDSAVYYCARGDDGSYVRWYFDVWGAGTTVTVSSEPKSSDKTHTCPPCPAPPAAAPSVFLFPPKPKDTLMISRTPEVTCVVVDVSHEDPEVKFNWYVDGVEVHNAKTKPREEQYNSTYRVVSVLTVLHQDWLNGKEYKCAVSNKALPAPIEKTISKAKGQPREPQVYTLPPSRDELTKNQVSLTCLVKGFYPSDIAVEWESNGQPENNYKTTPPVLDSDGSFFLYSKLTVDKSRWQQGNVFSCSVMHEALHNHYTQKSLSLSPGGGGSPSEVQLVESGGGLVKPGGSLRLSCAASGFTFSDYGMAWVRQAPGKGLEWVAFITSLAYIIYYADSVKGRFTISRDNAKNSLYLQMNSLRAEDTAVYYCARNYGSSPYYFDYWGQGTLVTVSSGGGGSGGGGSGGGGSGGGGSDIQMTQSPSSLSASVGDRVTITCRASQDINKFLSWYQQKPGKAPKLLIHYTSSLQPGVPSRFSGSGSGTDFTLTISSLQPEDFATYYCLQYDNLYTFGQGTKLEIK
notes: also called CD40_1D5 x hFc x PDL_5F9

binding result: binds
B7: CD4001071 (bispecific antibody)
Fc-Knob x PDL_5F9: EPKSSDKTHTCPPCPAPPAAAPSVFLFPPKPKDTLMISRTPEVTCVVVDVSHEDPEVKFNWYVDGVEVHNAKTKPREEQYNSTYRVVSVLTVLHQDWLNGKEYKCAVSNKALPAPIEKTISKAKGQPREPQVYTLPPSRDELTKNQVSLWCLVKGFYPSDIAVEWESNGQPENNYKTTPPVLDSDGSFFLYSKLTVDKSRWQQGNVFSCSVMHEALHNHYTQKSLSLSPGGGGSPSEVQLVESGGGLVKPGGSLRLSCAASGFTFSDYGMAWVRQAPGKGLEWVAFITSLAYIIYYADSVKGRFTISRDNAKNSLYLQMNSLRAEDTAVYYCARNYGSSPYYFDYWGQGTLVTVSSGGGGSGGGGSGGGGSGGGGSDIQMTQSPSSLSASVGDRVTITCRASQDINKFLSWYQQKPGKAPKLLIHYTSSLQPGVPSRFSGSGSGTDFTLTISSLQPEDFATYYCLQYDNLYTFGQGTKLEIK
CD40_5B9 x Fc-Hole x PDL_5F9: DVVMTQTPLSLPVSLGDQASISCRSSQSLVHYNGYTYLHWYLQKPGQSPKLLIYKVSNRFSGVPDRFSGSGSGTDFTLKISRVEAEDLGVYFCSQTTHVPLTFGAGTKLELRGGGGSGGGGSGGGGSGGGGSEVMLVESGGGLVKPGGSLKLSCAASGFTFSSYAMSWVRQTPERRLEWVASISSAGTYIYYPDSVKGRFTISRDNAKNILYLQMNSLRSEDTAMYYCARHGNGYDPLWYFDVWGAGTTVTVSSEPKSSDKTHTCPPCPAPPAAAPSVFLFPPKPKDTLMISRTPEVTCVVVDVSHEDPEVKFNWYVDGVEVHNAKTKPREEQYNSTYRVVSVLTVLHQDWLNGKEYKCAVSNKALPAPIEKTISKAKGQPREPQVYTLPPSRDELTKNQVSLSCAVKGFYPSDIAVEWESNGQPENNYKTTPPVLDSDGSFFLVSKLTVDKSRWQQGNVFSCSVMHEALHNRFTQKSLSLSPGGGGSPSEVQLVESGGGLVKPGGSLRLSCAASGFTFSDYGMAWVRQAPGKGLEWVAFITSLAYIIYYADSVKGRFTISRDNAKNSLYLQMNSLRAEDTAVYYCARNYGSSPYYFDYWGQGTLVTVSSGGGGSGGGGSGGGGSGGGGSDIQMTQSPSSLSASVGDRVTITCRASQDINKFLSWYQQKPGKAPKLLIHYTSSLQPGVPSRFSGSGSGTDFTLTISSLQPEDFATYYCLQYDNLYTFGQGTKLEIK

Reference: patent US20260217833A1 (APTEVO RESEARCH AND DEVELOPMENT, published 2026)
